# Experimental data as given in patent US20220144922A1 (Adimab, published 2022).
# Legend:
# [1] = molecular target: RSV F protein of subtype B strain 18537, on virus (respiratory syncytial virus subtype B …, UniProt P13843 26-574); assay: cell-based or functional assay
# [2] = molecular target: RSV F protein of subtype A strain A2, on virus (respiratory syncytial virus subtype A …, UniProt P03420 26-574); assay: cell-based or functional assay
# [3] = molecular target: T1, prefusion-stabilized RSV F ectodomain (DS-Cav1), subtype B (respiratory syncytial virus subtype B); assay: BLI, IgG on sensor
# T1 construct: extracellular domain; also called Prefusion subtype B
# Experimental: IgG binding to DS-Cav1 and FA FP was determined by BLI measurements using a FortéBio Octet HTX instrument (Pall Life Sciences). […] Data was analyzed using the ForteBio Data Analysis Software 7. The data was fit to a 1:1 binding model to calculate an association and dissociation rate, and KD was calculated using the ratio kd/kₐ.
Binder,Neut IC50 (ug/ml) subtype B [1] [µg/mL],Neut IC50 (ug/ml) subtype A [2] [µg/mL],Kd [3] [nM]
"ADI-15564 (antibody, V domains shown, IgG) VH: QVQLVQSGAEVKKPGSSVKVSCKASGDTFNSYSISWVRQAPGQGLEWMGGILPMFGSSDYAQKFQGRLTITADESTRTAYMELNSLTSEDTAIYYCARDNYYVWTGRYPEFDFWGQGTLVTVSS VL: EIVLTQSPGTLSLSPGDEATLSCRASQSVTSNYLAWYQQRPGQAPRLLISGASRRATAVPDRFSGSGSGTDFTLTISRLEPEDFAVYYCQQYGSTPITFGQGTRLEIK",0.016,0.011,0.64
"ADI-15642 (antibody, V domains shown, IgG; also called Antibody Number 206) VH: EVQLVESGGGLIQPGGSLRLSCAASGFTVSSKYMSWVRQAPGKGLEWVSIIYSGGSTYHADSVKGRFTISRDNSKNTLYLQMNSLRAEDTAVYYCARDDYDFWSGNGPPEMAVWGQGTTVTVSS VL: DIRMTQSPSSLSASVGDRVTITCRASQGISNYLAWYQQKPGKVPKLLIYAASTLQSGVPSRFSGSGSETDFTLTISSLQPEDVATYYCQKYNSVPLTFGQGTKVEIK",0.005,0.499,2.81
"ADI-15650 (antibody, V domains shown, IgG; also called Antibody Number 214) VH: EVQLVESGGGLIQPGGSLRLSCAASGFTVSSKYMSWVRQAPGKGLEWVSIIYSGGSTYYADSVKGRFTISRDNSKNTLYLQMNSLRAEDTAVYYCARDDYDFWSGNGPPEMAVWGQGTTVTVSS VL: DMRLTQSPSSLSASVGDRVTITCRASQGISNYLAWYQQRPGKVPQLLIYTASTLQSGVPSRFSGSGSETDFTLTISSLQPEDVATYYCQKYDSVPLTFGQGTKVEIK",0.016,8.3,3.52
"ADI-15583 (antibody, V domains shown, IgG) VH: QVQLVQSGAEVKKPGESLKISCKTSGYKFTNYWIGWVRQMPGKGLEWMGIIYPGDSDARYSPSFQGQVTFSADKSISTAYLQWSSLKASDTAMYYCARQDNSGWADFFPFDYWGQGTLVTVSS VL: ETTLTQSPGTLSLSPGERATLSCRASHSFSSSYLAWYQQKPGQAPRLLIYAASNRATGIPDRFSGSGSGTDFTLTISRLEPEDFAVYFCQQYDSSPWTFGQGTKVEIK",0.377,0.443,0.351
"ADI-15643 (antibody, V domains shown, IgG) VH: QVQLVQSGAEVKKPGESLKISCKTSGYRFTNYWIGWVRQMPGKGLEWMGIIYPGDSDARYSPSFQGQVTFSADKSISTAYLHWSSLKASDTAMYYCARQDDSGWADFFPFDYWGQGTLVTVSS VL: EIVLTQSPGTLSLSPGERATLSCRASHSFSSTYLAWYQQKPGQAPRLLIYAASNRATGIPDRFSGSGSGTDFTLTISRLEPEDFAVYFCQQYDSSPWTFGQGTKLEIK",0.115,0.039,0.162
"ADI-15563 (antibody, V domains shown, IgG) VH: EVQLVESGGGLVQPGRSLRLSCAASGFTFDDYAMHWVRQAPGKGLEWVSGISWNSGIVKYADSVKGRFTISRDNAKNSLYLQMNSLRTEDTALYYCVKDGYTSSWHSDYHYGLDVWGQGTTVTVSS VL: DIVMTQSPATLSLSPGDRATLSCRASQNVISNLAWYQQKPGQAPRLLIYTVSTRATGIPARFSGSGSGTDFTLTISSLQSEDFAVYYCQQYNNWPLTFGGGTKVEIK",0.047,0.014,2.2
"ADI-15655 (antibody, V domains shown, IgG) VH: EVQLVESGGGVVQPGRSLRLSCAASGFTFSSYAMHWVRQAPGKGLEWVAVISYDEGNEYYADSVKGRFTISRANSKNTIYLQMNSLRAEDTAVYYCARDYIHGDYGLDVWGLGTTVTVSS VL: not shown",> 10,> 10,8.58
"ADI-15649 (antibody, V domains shown, IgG) VH: EVQLVESGGGLVKPGGSLRLSCAAPGFTIRSYTMYWVRQAPGKGLEWVASISSSSSYIHYGDSVKGRFTIARDNAKNSLYLQMNSLRAEDTAVYYCVRDHCTGGSCYLNGMDVWGQGTTVTVSS VL: QPVLTQPPSVSGAPGQRVTISCTGTSSNIGAGYDVHWYQQLPGTAPKLLIYGNNNRPSGVPDRFSGSKSGTSASLAITGLQAEDEADYYCQSYDSSLSGSVFGGGTKLTVL",2.19,> 10,0.329
